Tests used:
HLA-A*02:06 = test: IEDB peptide-MHC binding, purified MHC/direct/fluorescence; filed as Kd, often an IC50 or EC50 that approximates it; ≥ and ≤ were set here for values at or beyond the usual limits of such assays; conditions: source organism: Vibrio vulnificus YJ016
HLA-B*39:01 = test: as above; conditions: source organism: Vibrio vulnificus YJ016
HLA-B*57:01 = test: as above; conditions: source organism: Vibrio vulnificus YJ016
HLA-B*51:01 [1] = test: as above; conditions: source organism: Vibrio vulnificus YJ016
HLA-A*24:03 = test: as above; conditions: source organism: Vibrio vulnificus YJ016
HLA-A*26:01 = test: as above; conditions: source organism: Vibrio vulnificus YJ016
HLA-A*29:02 [2] = test: as above; conditions: source organism: Vibrio vulnificus YJ016
HLA-B*15:17 = test: as above; conditions: source organism: Vibrio vulnificus YJ016
HLA-B*15:01 = test: as above; conditions: source organism: Vibrio vulnificus YJ016
HLA-A*03:01 [3] = test: as above; conditions: source organism: Vibrio vulnificus YJ016
HLA-A*02:19 = test: as above; conditions: source organism: Vibrio vulnificus YJ016
HLA-A*02:01 [4] = test: as above; conditions: source organism: Vibrio vulnificus YJ016
HLA-B*27:03 = test: as above; conditions: source organism: Vibrio vulnificus YJ016
HLA-B*18:01 [5] = test: as above; conditions: source organism: Vibrio vulnificus YJ016
HLA-B*46:01 = test: as above; conditions: source organism: Vibrio vulnificus YJ016
HLA-A*02:12 = test: as above; conditions: source organism: Vibrio vulnificus YJ016
HLA-B*53:01 [6] = test: IEDB peptide-MHC binding, purified MHC/competitive/fluorescence; filed as Kd, often an IC50 or EC50 that approximates it; ≥ and ≤ were set here for values at or beyond the usual limits of such assays; conditions: source organism: Vibrio vulnificus YJ016
HLA-A*23:01 = test: as above; conditions: source organism: Vibrio vulnificus YJ016
HLA-A*11:01 [7] = test: as above; conditions: source organism: Vibrio vulnificus YJ016
HLA-B*07:02 [8] = test: as above; conditions: source organism: Vibrio vulnificus YJ016
HLA-A*30:01 = test: as above; conditions: source organism: Vibrio vulnificus YJ016
HLA-A*01:01 [9] = test: as above; conditions: source organism: Vibrio vulnificus YJ016
HLA-B*08:01 [10] = test: as above; conditions: source organism: Vibrio vulnificus YJ016
HLA-B*40:01 = test: as above; conditions: source organism: Vibrio vulnificus YJ016
HLA-A*66:01 = test: as above; conditions: source organism: Vibrio vulnificus YJ016
HLA-B*58:01 [11] = test: as above; conditions: source organism: Vibrio vulnificus YJ016
HLA-B*14:02 [12] = test: as above; conditions: source organism: Vibrio vulnificus YJ016
HLA-B*44:02 = test: as above; conditions: source organism: Vibrio vulnificus YJ016
HLA-B*27:05 = test: as above; conditions: source organism: Vibrio vulnificus YJ016
HLA-A*30:02 = test: as above; conditions: source organism: Vibrio vulnificus YJ016
HLA-B*53:01 [13] = test: IEDB peptide-MHC binding, purified MHC/competitive/fluorescence; ≥ and ≤ were set here for values at or beyond the usual limits of such assays; conditions: source organism: Tarsius lariang
HLA-A*11:01 [14] = test: as above; conditions: source organism: Tarsius lariang
HLA-B*51:01 [15] = test: as above; conditions: source organism: Tarsius lariang
HLA-B*07:02 [16] = test: as above; conditions: source organism: Tarsius lariang
HLA-B*40:02 = test: as above; conditions: source organism: Tarsius lariang
HLA-A*01:01 [17] = test: as above; conditions: source organism: Tarsius lariang
HLA-A*31:01 = test: as above; conditions: source organism: Tarsius lariang
HLA-A*29:02 [18] = test: as above; conditions: source organism: Tarsius lariang
HLA-B*44:03 = test: as above; conditions: source organism: Tarsius lariang
HLA-A*03:01 [19] = test: as above; conditions: source organism: Tarsius lariang
HLA-A*02:01 [20] = test: as above; conditions: source organism: Tarsius lariang
HLA-B*08:01 [21] = test: as above; conditions: source organism: Tarsius lariang
HLA-A*68:02 = test: as above; conditions: source organism: Tarsius lariang
HLA-A*24:02 = test: as above; conditions: source organism: Tarsius lariang
HLA-B*35:01 = test: as above; conditions: source organism: Tarsius lariang
HLA-B*58:01 [22] = test: as above; conditions: source organism: Tarsius lariang
HLA-A*25:01 = test: as above; conditions: source organism: Tarsius lariang
HLA-B*18:01 [23] = test: as above; conditions: source organism: Tarsius lariang
HLA-B*14:02 [24] = test: as above; conditions: source organism: Tarsius lariang
HLA-B*37:01 = test: as above; conditions: source organism: Tarsius lariang

## SVFELSNFA
HLA-A*02:06
  Kd: 0.002 µM
HLA-B*39:01
  Kd: ≥ 20 µM
HLA-B*57:01
  Kd: ≥ 20 µM
HLA-B*51:01 [1]
  Kd: ≥ 20 µM
HLA-A*24:03
  Kd: ≥ 20 µM
HLA-A*26:01
  Kd: ≥ 20 µM
HLA-A*29:02 [2]
  Kd: ≥ 20 µM
HLA-B*15:17
  Kd: ≥ 20 µM
HLA-B*15:01
  Kd: ≥ 20 µM
HLA-A*03:01 [3]
  Kd: ≥ 20 µM
HLA-A*02:19
  Kd: ≥ 20 µM
HLA-A*02:01 [4]
  Kd: 0.008 µM
HLA-B*27:03
  Kd: ≥ 20 µM
HLA-B*18:01 [5]
  Kd: ≥ 20 µM
HLA-B*46:01
  Kd: ≥ 20 µM
HLA-A*02:12
  Kd: 0.679 µM
HLA-B*53:01 [6]
  Kd: ≥ 5 µM
HLA-A*23:01
  Kd: ≥ 5 µM
HLA-A*11:01 [7]
  Kd: ≥ 5 µM
HLA-B*07:02 [8]
  Kd: ≥ 5 µM
HLA-A*30:01
  Kd: ≥ 5 µM
HLA-A*01:01 [9]
  Kd: ≥ 5 µM
HLA-B*08:01 [10]
  Kd: ≥ 5 µM
HLA-B*40:01
  Kd: ≥ 5 µM
HLA-A*66:01
  Kd: ≥ 5 µM
HLA-B*58:01 [11]
  Kd: ≥ 5 µM
HLA-B*14:02 [12]
  Kd: ≥ 5 µM
HLA-B*44:02
  Kd: ≥ 5 µM
HLA-B*27:05
  Kd: ≥ 5 µM
HLA-A*30:02
  Kd: ≥ 5 µM

## TEAEKWPFF
HLA-B*53:01 [13]
  IC50: ≥ 20 µM
HLA-A*11:01 [14]
  IC50: ≥ 20 µM
HLA-B*51:01 [15]
  IC50: ≥ 20 µM
HLA-B*07:02 [16]
  IC50: ≥ 20 µM
HLA-B*40:02
  IC50: 0.0405 µM
HLA-A*01:01 [17]
  IC50: ≥ 20 µM
HLA-A*31:01
  IC50: ≥ 20 µM
HLA-A*29:02 [18]
  IC50: ≥ 20 µM
HLA-B*44:03
  IC50: ≥ 20 µM
HLA-A*03:01 [19]
  IC50: ≥ 20 µM
HLA-A*02:01 [20]
  IC50: ≥ 20 µM
HLA-B*08:01 [21]
  IC50: ≥ 20 µM
HLA-A*68:02
  IC50: ≥ 20 µM
HLA-A*24:02
  IC50: 0.57 µM
HLA-B*35:01
  IC50: ≥ 20 µM
HLA-B*58:01 [22]
  IC50: ≥ 20 µM
HLA-A*25:01
  IC50: ≥ 20 µM
HLA-B*18:01 [23]
  IC50: 0.0432 µM
HLA-B*14:02 [24]
  IC50: ≥ 20 µM
HLA-B*37:01
  IC50: 0.394 µM
